These results are taken from US20250206828A1, “ANTI-ADENOSINE RECEPTOR (A2aR) ANTIBODIES AND THE USE THEREOF” (Adept Therapeutics Inc., priority 2022, published 2025).

Numbering of substitutions follows the chain as printed.

Assay [1] deals with human PBMCs (CD4 and CD8 T cells). Description: Restoration of CD25 and CD69 activation markers on NECA-suppressed CD4 and CD8 T cells. The class given is cell-based. The note with it: test substance 2 μg/ml. The method, then:
(§1) Two hundred thousand (2×10^5) human peripheral blood mononuclear cells (PBMCs) human PBMC in complete IMDM medium were aliquoted into each well in a 96-well plate and the cells in the 96-well plate were pre-incubated with antibodies or small molecule inhibitors at indicated concentration for 90 minutes, followed by addition of T cell activator anti-CD3/28 dynabeads (Gibco, Cat #11132D) at ratio of 1:4 (Beads: PBMC, v/v) and NECA (DiscoverX, Cat #92-1191, final concentration […]). Cells were cultured in an incubator at 37° C., 5% CO2 for 24 hours. Cells were then collected and stimulated with anti-CD3/28 dynabeads in the presence of GolgiPlug™ Protein Transport Inhibitor (BD Biosciences, Cat #555028) according to manufacturer's manual for 4 hours. Thereafter, cells were incubated with human TruStain FcX block (Biolegend, Cat #422302) and True-Stain monocyte blocker (Biolegend, Cat #426103) for 15 minutes according the manufacturer's manual, and cells were then stained with surface markers PE-anti-CD4 (Biolegend, Cat #300550), PerCP-cy5.5-anti-CD8 (Biolegend, Cat #301032), APC/cy7-anti-CD3 (Biolegend, Cat #300426) and PE/cy7-anti-CD56 (Biolegend, Cat #362509), PE/cy7-anti-CD56 (Biolegend, Cat #362509), BV711-anti-CD25 (Biolegend, Cat #302636) and BV605-anti-CD69 (Biolegend, Cat #31938 After wash with FACS buffer, cells were stained with BV421-anti-IFN-γ (BD Bioscience, Cat #562988) and APC anti-IL-2 (BD Bioscience, cat #551383) using intracellular cytokine staining kit (BD Biosciences, cat #555028) following manufacturer's instruction. Stained samples were analyzed on FACSAria III machine. Data were analyzed using Flowjo software.

Assay [2] relates to human PBMCs (CD4 T, CD8 T, NK cells). Put plainly: Restoration of IFN-γ and IL-2 production of NECA-suppressed T cells and NK cells (intracellular cytokine staining). The assay is classed as cell-based. The note with it: NECA; test substance 2 μg/ml. The protocol: as §1
The target in assay [3] is human adenosine A2A receptor (A2aR) (human, UniProt P29274 1-412). Description: flow cytometry, HEK293-hA2aR cells, supernatant 1 ug/ml. (A flow cytometer gives signals particle by particle.)
human adenosine A2A receptor (A2aR), sequence (P29274 whole entry): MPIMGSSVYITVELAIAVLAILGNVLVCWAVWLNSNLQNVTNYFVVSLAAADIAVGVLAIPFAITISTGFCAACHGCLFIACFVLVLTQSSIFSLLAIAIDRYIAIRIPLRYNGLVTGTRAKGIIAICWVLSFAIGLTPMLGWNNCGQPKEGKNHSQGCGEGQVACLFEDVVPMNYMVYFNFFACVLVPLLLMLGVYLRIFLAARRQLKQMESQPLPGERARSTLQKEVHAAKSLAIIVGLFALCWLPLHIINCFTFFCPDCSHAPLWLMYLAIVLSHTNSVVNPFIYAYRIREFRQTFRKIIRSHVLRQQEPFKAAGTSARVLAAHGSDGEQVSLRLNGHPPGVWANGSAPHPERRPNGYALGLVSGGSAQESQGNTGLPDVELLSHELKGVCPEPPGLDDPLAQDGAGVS
Another assay has as its target human A2aR (Homo sapiens, UniProt P29274). Description: Binding of humanized anti-A2aR antibodies in transfected Expi293F cell supernatant to human A2aR on HEK293 cells (FACS, MFI). The note with it: supernatant with 1 μg/ml antibody; HEK293 overexpressing human A2aR; heavy chain (row) x light chain. The protocol:
Briefly, HEK293 cells that stably overexpress human A2aR (HEK-hA2aR OCL, BPS Bioscience, Cat. 79381) were collected from fresh culture. Cells were then resuspended in FACS buffer (1×DPBS/1% FBS) at 10^6/ml concentration. One hundred microliters (100 μl) of cells were aliquoted into each well of a 96 well plates. After centrifugation, cell pellets in each well were then resuspended with 100 μl normalized supernatant samples containing 1 μg/ml humanized anti-A2aR monoclonal antibody variants collected from transfected Expi293 cell culture. The supernatants were mixed with the cells and incubated on ice for 1 hours. After washing the mixtures of the supernatants containing expressed antibodies and the A2aR-expressing cells with FACS buffer, one hundred microliters (100 μl) of 1:400 diluted PE-conjugated anti-human Fc secondary antibody (Jackson Immuno Research, Cat. 109-116-098) was added to each well followed by an incubation for 30 minutes on ice. After washes with FACS buffer, stained cells were resuspended in 150 μl of 7-AAD (Biolegend, Cat. 420404) diluted 1:100 in 1×DPBS buffer and incubate for 5 minutes in the dark at room temperature before FACS analysis. The mean fluorescence intensity (MFI) was obtained using Guava 11HT or 5HT (Luminex). Data was analyzed using Flowjo software.
As shown in Tables 22-24, exemplary humanized anti-A2aR antibodies bind to A2aR expressed on a cell surface. A greater MFI value means stronger binding of the exemplary antibody to A2aR expressed on a cell surface.

human A2aR, sequence (P29274 whole entry): as above

`Cc1cc(-c2nnc(N)nc2-c2ccc(F)cc2)cc(Cl)n1` [AZD4635]: in assay [1], the “% of cells CD25+, CD4 T cells” value is on record as 48.8%; the “% of cells CD25+, CD8 T cells” value stood at 26%; the “% of cells CD69+, CD4 T cells” value is listed as 48.1%; the “% of cells CD69+, CD8 T cells” value came to 49.1%. In assay [2], the “% of cells IFNγ+, CD4 T cells” value is recorded as 3.41%; the “% of cells IFNγ+, CD8 T cells” value turned out to be 13.3%; the “% of cells IFNγ+, NK cells” value came to 8.91%; the “% of cells IL-2+, CD4 T cells” value is on record as 10.4%. Further, the “% of cells IL-2+, CD8 T cells” value in assay [2] worked out at 2.57%.

B1: Hu3F8-H4/Hu3F8-L1 (antibody, human IgG1, V domains shown)
VH: EVQLVQSGAEVKKPGASVKVSCKASGFTFTRYWMNWVRQAPGQGLEWIGRIDPSDSETHYNHKFWGRATLTVDKSTSTVYMELSSLRSEDTAVYYCLRSLYGKGDYWGQGTTVTVSS
VL: DVVMTQSPLSLPVTLGQPASISCRSSQSIVHSNGNTYLEWFQQRPGQSPRRLIYKVSNRFSGVPDRFSGSGSGTDFTLKISRVEAEDVGVYYCYQGSHVPLTFGGGTKVEIK
In assay [3], B1 returned an MFI of 110 MFI.

B2: Hu3F8-H5/Hu3F8-L2 (antibody, human IgG1, V domains shown)
VH: B1 VH with H62A
VL: B1 VL with F41Y
B2 yielded an MFI in assay [3] of 147 MFI.

B3: Hu3F6-H3/Hu3F6-L1: humanized anti-A2aR IgG1 FES antibody; HCVR SEQ ID NO:60, LCVR SEQ ID NO:76 (antibody, V domains shown)
VH: B1 VH with A24T, T28A, R31S, T58A, N61H, K74T, T76S, Q109H
VL: B1 VL with I29L, S32R
For B3, in the assay with human A2aR, the “MFI, binding to human A2aR on cell surface (3F6-9G5 derived)” value stood at 12.

B4: Hu1B5-H5/Hu1B5-L1 (antibody, human IgG1, V domains shown)
VH: B1 VH with A24T, Y32F, S54Y, H59Q, N61A, G66D, T76S, L97G
VL: B1 VL with Y94F
Consider B4, for which, in assay [3], the MFI came out at 82 MFI.

B5: Hu3F8-H6/Hu3F8-L1 (antibody, human IgG1, V domains shown)
VH: EVQLVQSGAEVKKPGESLRISCKASGFTFTRYWMNWVRQMPGKGLEWIGRIDPSDSETHYNHKFWGHATLSVDKSSSTVYLQWSSLKASDTAMYYCLRSLYGKGDYWGQGTTVTVSS
VL: B1 VL
Turning to B5, the MFI in assay [3] came to 158 MFI.

B6: Hu3F6-H3/Hu3F6-L2: humanized anti-A2aR IgG1 FES antibody; HCVR SEQ ID NO:60, LCVR SEQ ID NO:77 (antibody, V domains shown)
VH: B1 VH with A24T, T28A, R31S, T58A, N61H, K74T, T76S, Q109H
VL: B1 VL with I29L, S32R, F41Y
In the case of B6, the “MFI, binding to human A2aR on cell surface (3F6-9G5 derived)” value with human A2aR turned out to be 200.

B7: Hu3F8-H4/Hu3F8-L2: humanized anti-A2aR IgG1 FES antibody; HCVR SEQ ID NO:67, LCVR SEQ ID NO:85 (antibody, V domains shown)
VH: B1 VH
VL: B1 VL with F41Y
Consider B7, for which, in the assay with human A2aR, the “MFI, binding to human A2aR on cell surface (3F8-12E9 derived)” value (“MFI, binding … (3F8-12E9 derived)” below) stood at 131.

B8: Hu3F8-H5/Hu3F8-L1: humanized anti-A2aR IgG1 FES antibody; HCVR SEQ ID NO:68, LCVR SEQ ID NO:84 (antibody, V domains shown)
VH: B1 VH with H62A
VL: B1 VL
For the molecule B8, in the assay with human A2aR, the “MFI, binding … (3F8-12E9 derived)” value is reported as 58.

B9: Hu3F8-H4/Hu3F8-L2 (antibody, human IgG1, V domains shown)
VH: B1 VH
VL: B1 VL with F41Y
B9 came in with an MFI in assay [3] of 131 MFI.

B10: Hu3F8-H2/Hu3F8-L2: humanized anti-A2aR IgG1 FES antibody; HCVR SEQ ID NO:65, LCVR SEQ ID NO:85 (antibody, V domains shown)
VH: B1 VH with I48M, A68V, L70M, K74T
VL: B1 VL with F41Y
On to B10, for which the “MFI, binding … (3F8-12E9 derived)” value with human A2aR was found to be 38.

B11: Hu3F8-H5/Hu3F8-L1 (antibody, human IgG1, V domains shown)
VH: B1 VH with H62A
VL: B1 VL
The molecule B11 displayed an MFI in assay [3] of 58 MFI.

B12: Hu3F8-H3/Hu3F8-L2: humanized anti-A2aR IgG1 FES antibody; HCVR SEQ ID NO:66, LCVR SEQ ID NO:85 (antibody, V domains shown)
VH: B1 VH with K74T
VL: B1 VL with F41Y
Regarding B12, the “MFI, binding … (3F8-12E9 derived)” value with human A2aR stood at 93.

B13: Hu3F8-H5/Hu3F8-L2: humanized anti-A2aR IgG1 FES antibody; HCVR SEQ ID NO:68, LCVR SEQ ID NO:85 (antibody, V domains shown)
VH: B1 VH with H62A
VL: B1 VL with F41Y
As for B13, in the assay with human A2aR, the “MFI, binding … (3F8-12E9 derived)” value is on record as 147.

B14: Hu3F8-H4/Hu3F8-L1: humanized anti-A2aR IgG1 FES antibody; HCVR SEQ ID NO:67, LCVR SEQ ID NO:84 (antibody, V domains shown)
VH: B1 VH
VL: B1 VL
As to B14, in the assay with human A2aR, the “MFI, binding … (3F8-12E9 derived)” value was determined as 110.

B15: Hu1B5-H3/Hu1B5-L1 (antibody, human IgG1, V domains shown)
VH: B1 VH with A24T, Y32F, S54Y, H59Q, G66D, K74T, T76S, L97G
VL: B1 VL with Y94F
B15: the MFI in assay [3] was found to be 152 MFI.

B16: Hu1B5-H2.1/Hu1B5-L1 (antibody, human IgG1, V domains shown)
VH: B1 VH with A24T, Y32F, S54Y, H59Q, G66D, A68V, L70M, K74T, L97G
VL: B1 VL with Y94F
B16 came in with an MFI in assay [3] of 145 MFI.

B17: Hu3F8-H6/Hu3F8-L1: humanized anti-A2aR IgG1 FES antibody; HCVR SEQ ID NO:70, LCVR SEQ ID NO:84 (antibody, V domains shown)
VH: B5 VH
VL: B1 VL
For B17, the “MFI, binding … (3F8-12E9 derived)” value with human A2aR was found to be 158.

B18: Hu1B5-H4/Hu1B5-L1 (antibody, human IgG1, V domains shown)
VH: B1 VH with A24T, Y32F, S54Y, H59Q, G66D, T76S, L97G
VL: B1 VL with Y94F
B18: the MFI in assay [3] stood at 182 MFI.

B19: Hu3F8-H3/Hu3F8-L1: humanized anti-A2aR IgG1 FES antibody; HCVR SEQ ID NO:66, LCVR SEQ ID NO:84 (antibody, V domains shown)
VH: B1 VH with K74T
VL: B1 VL
Consider B19, for which the “MFI, binding … (3F8-12E9 derived)” value with human A2aR is on record as 64.

B20: Hu1B5-H1/Hu1B5-L2 (antibody, human IgG1, V domains shown)
VH: QVQLVQSGAEVKKPGASVKVSCKASGFTFTRFWMNWVRQAPGQGLEWMGRIDPYDSETQYNHKFWDRVTMTRDTSTSTVYMELSSLRSEDTAVYYCGRSLYGKGDYWGQGTTVTVSS
VL: B1 VL with F41Y, Y94F
In assay [3], B20 had an MFI of 62 MFI.
